The target of assay [1] is PcrV of Pseudomonas aeruginosa strain PA103 (native, on the bacteria) (Pseudomonas aeruginosa). In words: cell-based or functional assay.
Assay [2] has as its target GST-PcrV fusion protein (Pseudomonas aeruginosa) [GST: P08515]. Put plainly: SPR, Biacore 3000, GST-PcrV amine-coupled to CM4 chip, Fab in solution. In general terms: Surface plasmon resonance follows binding to a sensor surface in real time, without labels.
Assay [3] shares this target. Put plainly: dilution ELISA, purified Fab in twofold series in duplicate on plates coated with GST-PcrV, TMB A450 (upper chart). (ELISA stands for enzyme-linked immunosorbent assay.)

As a reminder, the Kd is the concentration at which binding is half-saturated. A high value points to lower affinity. As usually defined, the koff is the first-order rate constant of dissociation. High values mean a short-lived complex, low ones a long-lived complex. For orientation: kon means the second-order rate constant of association. The low end stands for slow association, the high end for fast association. By EC50 (read off the curve) is commonly meant the concentration needed to bring the measured effect to its halfway point. Higher therefore signals a need for much substance.

In turn, Mab 166 whole IgG (antibody) showed an IC50, inhibition of Pseudomonas-mediated (TTSS exotoxin-dependent) cytotoxicity to P3-X63-Ag8 cells, propidium iodide flow cytometry in assay [1] of 93 nM.

B1: Murine Fab M166 (Fab, from another filing, V domains shown)
VH: QVQLKQSGPGLVQPSQSLSITCTVSGFSLTSYGVHWVRQSPGKGLEWLGVIWSGGDTDYNAAFISRLSISKDNSKSQLFFKMNSLRATDTAIYYCARNRGDIYYDFTYAMDYWGQGTSVTVSS
VL: DIQMTQSPASLSASVGETVTITCRASGNIQNYLAWYQQTQGKSPQLLVYSAKTLADGVPSRFSGSGSGTQYSLKINSLQPEDFGSYYCQHFWSTPYTFGGGTKLEIKR
As to B1, in assay [2], the Kd was 1.1 nM, the koff amounted to 0.00026 s⁻¹ and the kon amounted to 249000 M⁻¹ s⁻¹. In assay [3], this molecule had an EC50 (read off the curve) of 6 nM.

(Values after patent US7981843.)
